Test results taken from paper PMC9369135, “An FGFR1-Binding Peptide Modified Liposome for siRNA Delivery in Lung Cancer” (International Journal of Molecular Sciences, 2022).
Where no end group is shown, it is not given here.

Key:
Assay in all cases: MST; protein in a series of gradient dilutions, an equal amount of labeled CP7 peptide added; PBS with 0.05% Tween-20; glass capillary; room temperature; Monolith NT.115
Conditions in all cases: both partners purified
[1] = target: T1, Human VEGFR1/FLT-1 protein (Fc tag) (human, UniProt P17948 27-758)
T1 construct: human VEGFR1/FLT-1, recombinant protein with Fc tag, Sino Biological 10136-H02H; Check the vendor's data sheet; source: bought: Sino Biological

[2] = target: T2, Human FGFR1/CD331 protein (His tag) (human, UniProt P11362 22-376)
T2 construct: human FGFR1/CD331, recombinant protein with His tag, Sino Biological 10616-H08H; Check the vendor's data sheet; source: bought: Sino Biological
T2 sequence (looked up): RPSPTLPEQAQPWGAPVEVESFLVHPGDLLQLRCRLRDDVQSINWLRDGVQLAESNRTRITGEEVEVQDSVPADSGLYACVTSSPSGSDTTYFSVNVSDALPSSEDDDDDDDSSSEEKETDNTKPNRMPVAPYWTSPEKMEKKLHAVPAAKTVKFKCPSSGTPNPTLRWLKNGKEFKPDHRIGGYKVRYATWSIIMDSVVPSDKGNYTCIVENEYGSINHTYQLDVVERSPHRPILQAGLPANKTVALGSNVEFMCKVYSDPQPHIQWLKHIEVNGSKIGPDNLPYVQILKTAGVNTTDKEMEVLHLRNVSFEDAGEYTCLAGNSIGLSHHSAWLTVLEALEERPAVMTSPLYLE

[3] = target: T3, Human EGFR/HER1/ErbB1 protein (His tag) (human, UniProt P00533 25-645)
T3 construct: human EGFR/HER1/ErbB1, recombinant protein with His tag, Sino Biological 10001-H08H; Check the vendor's data sheet; source: bought: Sino Biological

T1 sequence (P17948 27-758): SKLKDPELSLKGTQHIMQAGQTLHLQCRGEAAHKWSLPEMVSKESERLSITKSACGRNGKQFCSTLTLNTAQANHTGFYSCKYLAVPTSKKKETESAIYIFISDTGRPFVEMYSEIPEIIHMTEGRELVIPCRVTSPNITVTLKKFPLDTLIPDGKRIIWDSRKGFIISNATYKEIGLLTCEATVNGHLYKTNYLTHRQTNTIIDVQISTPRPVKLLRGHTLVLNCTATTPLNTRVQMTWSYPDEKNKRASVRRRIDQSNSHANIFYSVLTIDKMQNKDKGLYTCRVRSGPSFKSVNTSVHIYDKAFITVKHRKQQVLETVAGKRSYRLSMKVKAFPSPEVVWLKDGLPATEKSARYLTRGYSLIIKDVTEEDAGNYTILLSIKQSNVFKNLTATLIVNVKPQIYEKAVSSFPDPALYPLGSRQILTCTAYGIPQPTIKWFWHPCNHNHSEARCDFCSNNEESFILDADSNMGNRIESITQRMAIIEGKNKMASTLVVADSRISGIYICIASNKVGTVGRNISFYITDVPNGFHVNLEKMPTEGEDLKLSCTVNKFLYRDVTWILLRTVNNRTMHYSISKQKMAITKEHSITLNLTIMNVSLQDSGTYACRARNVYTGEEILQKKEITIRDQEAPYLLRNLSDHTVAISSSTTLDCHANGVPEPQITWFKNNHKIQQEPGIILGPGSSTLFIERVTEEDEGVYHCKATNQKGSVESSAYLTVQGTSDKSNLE

Kd [1]: 66.1 nM | Kd [2]: 22.5 nM | Kd [3]: 389 nM
B1: CP7 peptide (CIQPFYP) (peptide)
peptide: CIQPFYP
modifications: also: labelled, label not named
notes: novel peptide designed and screened by the authors' group; The methods of the MST say only 'the labeled peptide'; source: synthetic peptide: Shanghai GL Biochem Peptide Ltd
